# Data reported in patent publication US20250297004A1, “NECTIN-4 BINDING AGENTS” (INNATE PHARMA, priority 2022, published 2025).
# Residue numbers refer to the chain shown, from its start.
# T1: human Nectin-4 expressed on cells (human, UniProt Q96NY8 32-510)
# T1 sequence: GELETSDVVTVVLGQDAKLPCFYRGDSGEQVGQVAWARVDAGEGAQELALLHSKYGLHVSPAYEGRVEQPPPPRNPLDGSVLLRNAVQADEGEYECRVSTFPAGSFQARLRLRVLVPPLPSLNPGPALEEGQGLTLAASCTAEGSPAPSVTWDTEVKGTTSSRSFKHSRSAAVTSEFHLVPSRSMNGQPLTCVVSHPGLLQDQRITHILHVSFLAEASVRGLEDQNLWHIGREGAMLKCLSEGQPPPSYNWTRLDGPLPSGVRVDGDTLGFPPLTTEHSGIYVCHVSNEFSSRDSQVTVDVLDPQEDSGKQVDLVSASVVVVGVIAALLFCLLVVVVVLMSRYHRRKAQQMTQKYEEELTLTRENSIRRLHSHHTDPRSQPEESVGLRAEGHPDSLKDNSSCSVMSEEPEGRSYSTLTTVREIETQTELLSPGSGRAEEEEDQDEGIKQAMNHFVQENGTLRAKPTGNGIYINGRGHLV
# T2: human Nectin-4 (Homo sapiens, UniProt Q96NY8)
# T2 sequence (Q96NY8 32-510): T1 sequence
# B1: H4L1 (antibody, human IgG1, V domains shown)
# VH: QVQLVQSGAEVKKPGASVKVSCKASGYIFTSYWMHWVKQAPGQGLEWMGEIDPSDSYTNYNQKFKGRVTMTLDKSTSTTYMELSSLRSEDTAVYYCARGYGNYGDYWGQGTLVTVSS
# VL: DVVMTQSPLSLPVTPGEPASISCRSSKSLLHSNGITYLYWYLQKPGQSPQLLIYQMSNLASGVPDRFSSSGSGTDFTLKISRVEAEDVGVYYCAQNLELPWTFGGGTKVEIK
# notes: human IgG1 isotype
# B2: H5L3 (antibody, human IgG1, kappa, V domains shown)
# VH: B1 VH with A40R
# VL: DVVMTQSALSNPVTPGEPASISCRSSKSLLHSNGITYLYWYLQKPGQSPQLLIYQMSNLASGVPDRFSSSGSGTDFTLKISRVEAEDVGVYYCAQNLELPWTFGGGTKVEIKR
# notes: Tested as human IgG1
# B3: H3L3 (antibody, human IgG1, V domains shown)
# VH: B1 VH with K38R
# VL: B1 VL with P8A, L11N
# notes: human IgG1 isotype
# B4: H5L1 (antibody, human IgG1, V domains shown)
# VH: B1 VH with A40R
# VL: B1 VL
# notes: human IgG1 isotype
# B5: H0L0 (antibody, human IgG1, V domains shown)
# VH: B1 VH with I28T, K38R, L72R, K74T, T79V
# VL: B1 VL with V2I, S69G
# notes: human IgG1 isotype; also called HOLO; humanized 5E7 variant H0L0
# B6: H3L1 (antibody, human IgG1, V domains shown)
# VH: B1 VH with K38R
# VL: B1 VL
# notes: human IgG1 isotype
# B7: H3L2 (antibody, human IgG1, V domains shown)
# VH: B1 VH with K38R
# VL: B1 VL with L11N
# notes: human IgG1 isotype
# B8: H2L0 (antibody, human IgG1, V domains shown)
# VH: B1 VH with I28T, K38R
# VL: B1 VL with V2I, S69G
# notes: human IgG1 isotype
# B9: H1L0 (antibody, human IgG1, V domains shown)
# VH: B1 VH with I28T, K38R, K74T
# VL: B1 VL with V2I, S69G
# notes: human IgG1 isotype
# B10: H4L2 (antibody, human IgG1, V domains shown)
# VH: B1 VH
# VL: B1 VL with L11N
# notes: human IgG1 isotype
# B11: H3L0 (antibody, human IgG1, V domains shown)
# VH: B1 VH with K38R
# VL: B1 VL with V2I, S69G
# notes: human IgG1 isotype
# B12: H4L3 (antibody, human IgG1, V domains shown)
# VH: B1 VH
# VL: B1 VL with P8A, L11N
# notes: human IgG1 isotype
# Target: T1, human Nectin-4 expressed on cells
# Test: cell-based or functional assay
# Details: not given
Molecule,"internalization efficiency on MDA-MB-468, normalized to chimeric parental antibody (Fab-ZAP, CTG), first column","internalization efficiency on MDA-MB-468, normalized to chimeric parental antibody (Fab-ZAP, CTG), second column"
B1,31 % of chimeric parental,31 % of chimeric parental
B2,87.8 % of chimeric parental,87.8 % of chimeric parental
B3,43.8 % of chimeric parental,43.8 % of chimeric parental
B4,33.4 % of chimeric parental,33.4 % of chimeric parental
B5,-36.2 % of chimeric parental,-36.2 % of chimeric parental
B6,48.2 % of chimeric parental,48.2 % of chimeric parental
B7,13.7 % of chimeric parental,13.7 % of chimeric parental
B8,-35.5 % of chimeric parental,-35.5 % of chimeric parental
B9,-7.4 % of chimeric parental,-7.4 % of chimeric parental
B10,64.2 % of chimeric parental,64.2 % of chimeric parental
B11,1.2 % of chimeric parental,1.2 % of chimeric parental
B12,43.8 % of chimeric parental,43.8 % of chimeric parental

# Target: human Nectin-4 (protein used in the SPR affinity measurements) (human) (UniProt Q96NY8)
# Test: SPR, human IgG1
# Details: not given
Molecule,Kd [nM],koff [s⁻¹],kon [M⁻¹ s⁻¹]
B1,19.5,0.0059,310000
B2,21.5,0.0053,250000
B3,27,0.007,260000
B4,24.5,0.0056,230000
B5,80.2,0.014,170000
B6,22,0.0087,400000
B7,25.9,0.0081,310000
B8,46.4,0.0062,130000
B9,67.3,0.0072,110000
B10,26.8,0.0054,200000
B11,35.8,0.0041,110000
B12,21.6,0.0052,250000

# Target: T2, human Nectin-4
# Test: Binding to human Nectin-4 by SPR
# Details: SPR association constant; first set (Table 4)
# Description: (§1) The antibodies in Table 3 of Example 3 were cloned as human IgG1 isotype antibodies, produced and purified, then tested for binding to human Nectin-4. Affinity of the 16 humanized variants, as well as their association and dissociation constants were assessed by SPR analysis. Table 4 summarizes all the calculated constants (Affinity constant KD (nM), association constant ka (1/Ms) and dissociation constant kd (1/s)).
# as §1, with “Table 6” for “Table 3”, “Example 5” for “Example 3”, “Table 7” for “Table 4”
row,Molecule,ka [M⁻¹ s⁻¹]
1,B3,260000
2,B5,170000
3,B6,400000 ± 30000
4,B7,310000
5,B8,130000
6,B9,110000
7,B11,110000

# Same assay, conditions: SPR association constant; second set (Table 7)
row,Molecule,ka [M⁻¹ s⁻¹]
1,B1,310000 ± 30000
2,B4,230000
3,B5,170000
4,B10,200000
5,B12,250000 ± 30000

# Same assay, conditions: SPR dissociation constant; first set (Table 4)
row,Molecule,kd [s⁻¹]
1,B3,0.007
2,B5,0.014
3,B6,0.0087 ± 0.0004
4,B7,0.0081
5,B8,0.0062
6,B9,0.0072
7,B11,0.0041

# Same assay, conditions: SPR dissociation constant; second set (Table 7)
row,Molecule,kd [s⁻¹]
1,B1,0.0059 ± 0.0003
2,B4,0.0056
3,B5,0.014
4,B10,0.0054
5,B12,0.0052 ± 0.0002

# Same assay, conditions: SPR; human IgG1 isotype antibodies; first set (Table 4)
row,Molecule,Kd [nM]
1,B3,27
2,B5,80.2
3,B6,22 ± 0.4
4,B7,25.9
5,B8,46.4
6,B9,67.3
7,B11,35.8

# Same assay, conditions: SPR; human IgG1 isotype antibodies; second set (Table 7)
row,Molecule,Kd [nM]
1,B1,19.5 ± 0.8
2,B4,24.5
3,B5,80.2
4,B10,26.8
5,B12,21.6 ± 1.1

# Target: T1, human Nectin-4 expressed on cells
# Test: cell-based or functional assay
# Details: not given
# Remark: another data set of the same source
Molecule,"internalization efficiency on SUM190, normalized to chimeric parental antibody (Fab-ZAP, CTG), experiment 1","internalization efficiency on SUM190, normalized to chimeric parental antibody (Fab-ZAP, CTG), experiment 2"
B1,73.5 % of chimeric parental,72.6 % of chimeric parental
B2,82.8 % of chimeric parental,74.9 % of chimeric parental
B3,65.3 % of chimeric parental,59.6 % of chimeric parental
B4,71.5 % of chimeric parental,52.4 % of chimeric parental
B5,65.9 % of chimeric parental,35.4 % of chimeric parental
B6,82.1 % of chimeric parental,41 % of chimeric parental
B7,69.8 % of chimeric parental,45.5 % of chimeric parental
B8,74.2 % of chimeric parental,61.8 % of chimeric parental
B9,83.7 % of chimeric parental,58.6 % of chimeric parental
B10,83.6 % of chimeric parental,67.6 % of chimeric parental
B11,81.4 % of chimeric parental,69.7 % of chimeric parental
B12,81.9 % of chimeric parental,61 % of chimeric parental

# Target: T1, human Nectin-4 expressed on cells
# Test: flow cytometry on SUM190 cells, MedFI at saturation
# Details: not given
# Description: The humanized antibodies in Table 3 of Example 3 and in Table 6 of Example 5 were cloned, produced and purified, then tested for binding to Nectin-4 expressing cells by flow cytometry. Binding of humanized variants in human IgG1 format was determined on the SUM190 cell line expressing high levels of Nectin-4.
row,Molecule,Max MedFi [MedFI]
1,B1,18400
2,B2,27100
3,B3,23800
4,B4,18300
5,B5,15500
6,B6,17200
7,B7,22900
8,B8,16700
9,B9,17300
10,B10,24400
11,B11,17600
12,B12,24800
